Reference: patent publication KR20220160483A (dated 2022)

T1: 재조합 인간 ASM(acid sphingomyelinase) 단백질 (human, UniProt P17405 62-630, limits assumed)
T1 construct: Recombinant protein, bought (R&D systems in the ELISA); also called 인간 ASM 단백질; recombinant human ASM protein
T1 sequence: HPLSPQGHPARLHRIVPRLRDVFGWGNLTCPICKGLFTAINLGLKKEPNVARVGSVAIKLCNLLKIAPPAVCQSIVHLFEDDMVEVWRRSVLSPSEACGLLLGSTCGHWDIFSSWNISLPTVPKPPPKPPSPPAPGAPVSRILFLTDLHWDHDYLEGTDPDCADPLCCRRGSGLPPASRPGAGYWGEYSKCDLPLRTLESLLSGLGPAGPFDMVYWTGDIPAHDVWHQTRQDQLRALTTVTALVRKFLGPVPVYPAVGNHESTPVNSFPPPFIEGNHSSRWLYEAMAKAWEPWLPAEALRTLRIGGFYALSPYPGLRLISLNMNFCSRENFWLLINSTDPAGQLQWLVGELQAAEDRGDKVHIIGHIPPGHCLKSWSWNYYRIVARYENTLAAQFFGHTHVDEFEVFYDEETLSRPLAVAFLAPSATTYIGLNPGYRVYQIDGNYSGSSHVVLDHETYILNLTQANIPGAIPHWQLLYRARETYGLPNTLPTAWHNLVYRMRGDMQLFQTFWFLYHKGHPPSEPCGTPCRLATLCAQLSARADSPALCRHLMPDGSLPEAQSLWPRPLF

T2: 재조합 마우스 ASM(acid sphingomyelinase) 단백질 (mouse, UniProt Q04519 45-626, limits assumed)
T2 construct: Recombinant protein; also called 마우스 ASM 단백질; recombinant mouse ASM protein
T2 sequence: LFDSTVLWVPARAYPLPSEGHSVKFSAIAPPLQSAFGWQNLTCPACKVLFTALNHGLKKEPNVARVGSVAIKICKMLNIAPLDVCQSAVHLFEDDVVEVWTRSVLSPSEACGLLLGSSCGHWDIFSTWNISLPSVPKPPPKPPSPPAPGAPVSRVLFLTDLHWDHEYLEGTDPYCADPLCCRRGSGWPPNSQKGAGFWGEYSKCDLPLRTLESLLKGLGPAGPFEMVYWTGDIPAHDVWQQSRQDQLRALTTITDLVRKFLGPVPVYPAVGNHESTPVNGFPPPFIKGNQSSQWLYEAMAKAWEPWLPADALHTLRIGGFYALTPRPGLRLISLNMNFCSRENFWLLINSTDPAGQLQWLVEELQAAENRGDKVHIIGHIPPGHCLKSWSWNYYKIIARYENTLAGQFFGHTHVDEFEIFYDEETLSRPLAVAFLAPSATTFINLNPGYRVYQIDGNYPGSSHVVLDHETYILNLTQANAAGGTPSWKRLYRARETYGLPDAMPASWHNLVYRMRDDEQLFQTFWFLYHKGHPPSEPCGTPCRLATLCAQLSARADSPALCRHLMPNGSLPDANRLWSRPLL


Experiments:
[1] = target: T1, 재조합 인간 ASM(acid sphingomyelinase) 단백질; experiment: ELISA, recombinant human ASM coated at 1 ㎍/㎖, anti-mouse IgG-HRP
[2] = target: T1, 재조합 인간 ASM(acid sphingomyelinase) 단백질; experiment: BLI (Octet QK384), human ASM amine-coupled on AR2G sensor, antibody 0.4, 2, 10 nM
[3] = target: T2, 재조합 마우스 ASM(acid sphingomyelinase) 단백질; experiment: BLI (Octet QK384), mouse ASM amine-coupled on AR2G sensor, antibody 0.4, 2, 10 nM; poor fit (RMax 0.0185, Full R2 0.5527), text does not count it as binding
[4] = target: T2, 재조합 마우스 ASM(acid sphingomyelinase) 단백질; experiment: BLI (Octet QK384), mouse ASM amine-coupled on AR2G sensor, antibody 0.4, 2, 10 nM; no signal (RMax 0, Full R2 0), text does not count it as binding
[5] = target: T2, 재조합 마우스 ASM(acid sphingomyelinase) 단백질; experiment: BLI (Octet QK384), mouse ASM amine-coupled on AR2G sensor, antibody 0.4, 2, 10 nM

| Binder | EC50 [1] | Kd [2] | koff [2] | kon [2] | Kd [3] | koff [3] | kon [3] | Kd [4] | koff [4] | kon [4] | Kd [5] | koff [5] | kon [5] |
| --- | --- | --- | --- | --- | --- | --- | --- | --- | --- | --- | --- | --- | --- |
| #9101 항체 (antibody, mouse IgG1, V domains shown) VH: EVQLLESGGGLVQPGGSLRLSCAASGFTFSNYAMSWVRQAPGKGLEWVSGIYPNGGNKYYADSVKGRFTISRDNSKNTLYLQMNSLRAEDTAVYYCAKNAYRFDYWGQGTLVTVSS VL: QSVLTQPPSASGTPGQRVTISCSGSSSNIGNNYVSWYQQLPGTAPKLLIYADSKRPSGVPDRFSGSKSGTSASLAIGGLRSEDEADYYCGSWDYSLNAYVFGGGTKLTVLG | 0.0815 nM | 1.16 nM | 0.000728 s⁻¹ | 626000 M⁻¹ s⁻¹ | 0.0425 nM | 0.000159 s⁻¹ | 3.76e+06 M⁻¹ s⁻¹ | – | – | – | – | – | – |
| #9104 항체 (antibody, mouse IgG1, V domains shown) VH: EVQLLESGGGLVQPGGSLRLSCAASGFTFSNYYMSWVRQAPGKGLEWVSGIYYGSGNIYYADSVKGRFTISRDNSKNTLYLQMNSLRAEDTAVYYCARDTPGFDYWGQGTLVTVSS VL: QSVLTQPPSASGTPGQRVTISCTGSSSNIGNNAVNWYQQLPGTAPKLLIYYDSHRPSGVPDRFSGSKSGTSASLAISGLRSEDEADYYCGAWDYSLSAYVFGGGTKLTVLG | 1.95 nM | 0.209 nM | 8.18e-05 s⁻¹ | 392000 M⁻¹ s⁻¹ | – | – | – | – | – | – | 0.638 nM | 0.000198 s⁻¹ | 310000 M⁻¹ s⁻¹ |
| #9108 항체 (antibody, mouse IgG1, V domains shown) VH: EVQLLESGGGLVQPGGSLRLSCAASGFTFSNYAMSWVRQAPGKGLEWVSAIYPGGGSIYYADSVKGRFTISRDNSKNTLYLQMNSLRAEDTAVYYCARDVLGLTPKPFDYWGQGTLVTVSS VL: QSVLTQPPSASGTPGQRVTLSCTGSSSNIGSNTVYWYQQLPGTAPKLLIYANSQRPSGVPDRFSGSKSGTSASLAISGLRSEDEADYYCGSWDYSLSGYVFGGGTKLTVLG | 0.327 nM | 0.119 nM | 2.96e-05 s⁻¹ | 249000 M⁻¹ s⁻¹ | – | – | – | – | – | – | 3.39 nM | 0.00156 s⁻¹ | 459000 M⁻¹ s⁻¹ |
| #9102 항체 (antibody, mouse IgG1, V domains shown) VH: EVQLLESGGGLVQPGGSLRLSCAASGFTFSGYYMSWVRQAPGKGLEWVSLISPGSGSIYYADSVKGRFTISRDNSKNTLYLQMNSLRAEDTAVYYCAKSWHHFDYWGQGTLVTVSS VL: not shown | 0.0954 nM | 0.252 nM | 0.000105 s⁻¹ | 416000 M⁻¹ s⁻¹ | – | – | – | – | – | – | 0.498 nM | 0.000243 s⁻¹ | 489000 M⁻¹ s⁻¹ |

The remaining lines, values ahead:

| EC50 [1] | Kd [2] | koff [2] | kon [2] | Kd [3] | koff [3] | kon [3] | Kd [4] | koff [4] | kon [4] | Kd [5] | koff [5] | kon [5] | Binder |
| --- | --- | --- | --- | --- | --- | --- | --- | --- | --- | --- | --- | --- | --- |
| 0.758 nM | – | – | – | – | – | – | – | – | – | – | – | – | #9123 항체 (antibody, mouse IgG1, V domains shown, also called #9123 mIgG1) VH: EVQLLESGGGLVQPGGSLRLSCAASGFTFSDYAMSWVRQAPGKGLEWVSAISYGGGNIYYADSVKGRFTISRDNSKNTLYLQMNSLRAEDTAVYYCARVGGMCTRRQCYYDYGMDVWGQGTLVTVSS VL: not shown |
| – | 0.564 nM | 0.000656 s⁻¹ | 1.16e+06 M⁻¹ s⁻¹ | – | – | – | < 0.001 nM | < 1e-07 s⁻¹ | 1e+06 M⁻¹ s⁻¹ | – | – | – | #9113 항체 (antibody, mouse IgG1, V domains shown, also called #9113 mIgG1) VH: EVQLLESGGGLVQPGGSLRLSCAASGFTFSSYYMSWVRQAPGKGLEWVSSISPGGSSIYYADSVKGRFTISRDNSKNTLYLQMNSLRAEDTAVYYCAKGASLFDYWGQGTLVTVSS VL: QSVLTQPPSASGTPGQRVTISCSGSSSNIGNNAVSWYQQLPGTAPKLLIYSDNKRPSGVPDRFSGSKSGTSASLAISGLRSEDEADYYCGTWDASLNAYVFGGGTKLTVLG |
